Several values for one entry are separate records, joined by “and”; a condition that tells them apart may be missing. Identical values can stand only once.
Key:
Assay type in all cases: physicochemical
[1] = Microcalorimetry (DSC) of HEWL dispersions stored in 80% w/w CDHP or 0.1M NaOAc; set-up: Thermal transition midpoint temperature of HEWL: unit not given here
Experimental: The samples were formulated in 2 ml silanized glass vials to reduce protein-surface interactions, covered with cap and septa, wrapped with parafilm to ensure no drying out of the sample, and stored away from sunlight. They were stirred for at least 24 hours until a homogeneous distribution of protein was obtained. […] The 35 silanized vials were exposed to UV light for 24 hours to ensure sterility. Control samples at equivalent concentrations were also prepared in triplicates in 0.1M NaOAc buffer (pH 4). Samples were tested for thermal stability via microcalorimetry and functional activity via the micrococcus lysodeikticus assay at monthly intervals.
A MicroCal VP-DSC microcalorimeter was used to assess thermal structural stability of all samples. Baseline repeatability was established with a minimum of 5 buffer-buffer scans. […] HEWL solutions were tested similarly with no dilution of the samples. Between samples, during the filling period of 15° C. to 25° C., the sample cell of the DSC was flushed with at least 25 ml distilled H2O, then at least 15 ml NaOAc to ensure no sample residue remained behind. Thermal profiles, enthalpy changes, and transition temperatures were obtained with Origin software.
All formulations were diluted to 0.1-0.5 mg/ml for testing. This allows one to observe how well protein thermal stability and structural integrity is maintained following storage and then dilution into a solution of similar composition as the environment of the body.

[2] = Microcalorimetry (DSC) of 1 mg/ml HEWL solutions in 0-40% w/w CDHP or 20% choline chloride in 0.1M NaOAc
Experimental: All samples were prepared in triplicate. A MicroCal VP-DSC microcalorimeter was used to assess thermal structural stability of all samples. […] HEWL solutions were tested similarly with no dilution of the samples. Between samples, during the filling period of 15° C. to 25° C., the sample cell of the DSC was flushed with at least 25 ml distilled H2O, then at least 15 ml NaOAc to ensure no sample residue remained behind. Thermal profiles, enthalpy changes, and transition temperatures were obtained with Origin software.

[3] = Sedimentation analysis of HEWL dispersions (centrifugation, BCA); conditions: HEWL dispersion in 80% w/w CDHP, 75 minutes at 15000 RPM
Experimental: The presence of any CDHP crystals was also noted. […] Images were taken using SlideBook.
The second approach to verify these sample compositions was to determine the amount of protein in the dispersed phase after separation of the solid and liquid components by centrifugation. To achieve separation of these components, solutions were centrifuged for 75 minutes at 15000 RPM, about 10% remained in the supernatant. Both the decanted supernatant and the pellet, which was re-suspended in buffer, were analyzed for protein content. It was observed that ˜90% of the formulated protein was contained in the pellet. The remaining about 10% of the formulated protein was found in the supernatant. […] Although the supernatants appeared clear it is possible that there are sub-visible particles of lysozyme in the supernatant that resist sedimentation at this rate.

[4] = stored at 100 mg/ml in Choline dhp, 2 months
[5] = stored at 100 mg/ml in Choline dhp, 3 months
[6] = stored at 100 mg/ml in Choline dhp, 4 months
[7] = stored at 100 mg/ml in Choline dhp, 5 months
[8] = 20% w/w Choline Chloride in 0.1M NaOAc

HEWL: hen egg white lysozyme (HEWL), a well characterized protein, purchased from Worthington Biochem
Enthalpy of unfolding of HEWL [1, 4]: 75.132 kcal/mol and 76.824 kcal/mol and 77.544 kcal/mol | Thermal transition midpoint temperature of HEWL [1, 4]: 346.42 and 346.43 and 346.47 | Enthalpy of unfolding of HEWL [1, 5]: 55.235 kcal/mol and 57.272 kcal/mol and 54.9 kcal/mol | Thermal transition midpoint temperature of HEWL [1, 5]: 346.39 and 346.37 | Enthalpy of unfolding of HEWL [1, 6]: 45.2295 kcal/mol and 45.5805 kcal/mol and 49.716 kcal/mol | Thermal transition midpoint temperature of HEWL [1, 6]: 346.3 and 346.35 and 346.37 | Enthalpy of unfolding of HEWL [1, 7]: 38.9 kcal/mol and 36.4 kcal/mol and 39.3 kcal/mol | Thermal transition midpoint temperature of HEWL [1, 7]: 346.29 and 346.02 and 346.35 | Thermal transition midpoint temperature of HEWL ([1]; stored at 100 mg/ml in NaOAc, 0 months): 346.92 and 346.45 and 347.06 | Thermal transition midpoint temperature of HEWL ([1]; stored at 100 mg/ml in NaOAc, 1 month): 345.92 and 346.17 and 345.84 | Thermal transition midpoint temperature of HEWL ([1]; stored at 100 mg/ml in NaOAc, 2 months): 345.78 and 346 and 345.69 | Thermal transition midpoint temperature of HEWL ([1]; stored at 100 mg/ml in NaOAc, 3 months): 345.79 and 345.9 and 345.66 | Thermal transition midpoint temperature of HEWL ([1]; stored at 100 mg/ml in NaOAc, 4 months): 345.47 and 345.41 and 345.51 | Thermal transition midpoint temperature of HEWL ([1]; stored at 100 mg/ml in NaOAc, 5 months): 345.39 and 345.41 | Gibbs free energy change at 25 C. ([2]; 0% w/w CDHP): 15.57794 kcal/mol and 14.4963 kcal/mol and 15.03024 kcal/mol | Tm ([2]; 0% w/w CDHP in 0.1M NaOAc): 75.18 °C and 75.19 °C and 75.25 °C | ΔH ([2]; 0% w/w CDHP in 0.1M NaOAc): 104.019 kcal/mol and 107.8 kcal/mol and 100.216 kcal/mol | ΔS ([2]; 0% w/w CDHP in 0.1M NaOAc): 298.62 cal/mol K and 309.47 cal/mol K and 287.65 cal/mol K | Gibbs free energy change at 25 C. ([2]; 5% w/w CDHP): 15.91862 kcal/mol and 15.48014 kcal/mol and 14.73002 kcal/mol | Tm ([2]; 5% w/w CDHP in 0.1M NaOAc): 76.08 °C and 76.07 °C and 75.4 °C | ΔH ([2]; 5% w/w CDHP in 0.1M NaOAc): 100.408 kcal/mol and 108.54 kcal/mol and 106.838 kcal/mol | ΔS ([2]; 5% w/w CDHP in 0.1M NaOAc): 287.51 cal/mol K and 310.81 cal/mol K and 306.57 cal/mol K | Gibbs free energy change at 25 C. ([2]; 10% w/w CDHP): 15.05244 kcal/mol and 16.93442 kcal/mol and 15.29508 kcal/mol | Tm ([2]; 10% w/w CDHP in 0.1M NaOAc): 76.08 °C and 76.10 °C and 77.09 °C | ΔH ([2]; 10% w/w CDHP in 0.1M NaOAc): 104.26 kcal/mol and 102.581 kcal/mol and 113.549 kcal/mol | ΔS ([2]; 10% w/w CDHP in 0.1M NaOAc): 298.54 cal/mol K and 293.72 cal/mol K and 324.21 cal/mol K | Gibbs free energy change at 25 C. ([2]; 20% w/w CDHP): 18.36296 kcal/mol and 17.40526 kcal/mol and 17.75496 kcal/mol | Tm ([2]; 20% w/w CDHP in 0.1M NaOAc): 78.82 °C and 78.94 °C and 78.79 °C | ΔH ([2]; 20% w/w CDHP in 0.1M NaOAc): 115.791 kcal/mol and 119.528 kcal/mol and 113.549 kcal/mol | ΔS ([2]; 20% w/w CDHP in 0.1M NaOAc): 328.98 cal/mol K and 339.48 cal/mol K and 322.63 cal/mol K | Gibbs free energy change at 25 C. ([2]; 20% w/w Choline Chloride): 13.3979 kcal/mol and 12.59732 kcal/mol and 12.72542 kcal/mol | Tm [2, 8]: 72.47 °C and 72.62 °C and 72.36 °C | ΔH [2, 8]: 92.354 kcal/mol and 96.972 kcal/mol and 91.615 kcal/mol | ΔS [2, 8]: 267.21 cal/mol K and 280.45 cal/mol K and 265.16 cal/mol K | Gibbs free energy change at 25 C. ([2]; 30% tw/w CDHP): 20.716 kcal/mol and 17.0974 kcal/mol and 22.40708 kcal/mol | Tm ([2]; 30% w/w CDHP in 0.1M NaOAc): 81.86 °C and 82.00 °C and 81.80 °C | ΔH ([2]; 30% w/w CDHP in 0.1M NaOAc): 139.533 kcal/mol and 128.741 kcal/mol and 106.557 kcal/mol | ΔS ([2]; 30% w/w CDHP in 0.1M NaOAc): 393.04 cal/mol K and 362.5 cal/mol K and 300.2 cal/mol K | Gibbs free energy change at 25 C. ([2]; 40% w/w CDHP): 25.634 kcal/mol and 23.8304 kcal/mol and 24.0018 kcal/mol | Tm ([2]; 40% w/w CDHP in 0.1M NaOAc): 86.27 °C and 86.39 °C and 86.37 °C | ΔH ([2]; 40% w/w CDHP in 0.1M NaOAc): 140.49 kcal/mol and 149.751 kcal/mol and 139.216 kcal/mol | ΔS ([2]; 40% w/w CDHP in 0.1M NaOAc): 390.9 cal/mol K and 416.5 cal/mol K and 307.2 cal/mol K | formulated protein contained in the pellet [3]: ~90% | formulated protein found in the supernatant [3]: about 10%
